Test results published in patent publication US20240209086A1 (PETMEDIX, published 2024).
Numbering of substitutions follows the chain as printed.

B1: PMX180 (monospecific anti-canine CD3, canine IgG-B effector function deficient Fc) (antibody, V domains shown)
VH: ELTLQESGPGLVKPSQTLSLTCVVSGGSVTSNYYWNWIRQRPGRGLEWMGYWTGSTNYNPAFQGRISITADTAKKQFSLQLRSMTIEDTAVYYCARRGIPIFFDYWGQGTLVTVSS
VL: SYVLTQLPSKNVTLKQPAHITCGGDNIGSKSVHWYQQKLGQAPVLIIYYDSSRPTGIPERFSGANSGNTATLTISGALAEDEADYYCQVWDSSASVFGGGTHLTVL
B2: PMX174 (monospecific anti-canine CD3, canine IgG-B effector function deficient Fc) (antibody)
heavy: EVQLVESGGDLVKAGVSLRLSCVASGFTFSNYHLNWVRQAPGKGPQWVASINSGGSSTYYADAVKGRFTISRDNAKNTLYLQMNSLRAEDTAVYYCASDHGSYRGMDYWGHGTSLFVSSASTTAPSVFPLAPSCGSTSGSTVALACLVSGYFPEPVTVSWNSGSLTSGVHTFPSVLQSSGLYSLSSMVTVPSSRWPSETFTCNVAHPASKTKVDKPVPKRENGRVPRPPDCPKCPAPESLGGPSVFIFPPKPKDTLLIARTPEVTCVVVDLGREDPEVQISWFVDGKQMQTAKTQPREEQFNGTYRVVSVLPIGHQDWLKGKQFTCKVNHIGLPSPIERTISKARGQAHQPSVYVLPPSREELSKNTVSLTCLIKDFFPPDIDVEWQSNGQQEPESKYRTTPPQLDEDGSYFLYSKLSVDKSRWQRGDTFICAVMHEALHNHYTQKSLSHSPGK
VL: SYVLTQLPSKNVTLKQPAHITCGGDNIGSKSVHWYQQKLGQAPVLIIYYDSSRPTGIPERFSGANSGNTATLTISGALAEDEADYYCQVWDSSAKAVFGGGTHLTVL
B3: PMX175 (monospecific anti-canine CD3, canine IgG-B effector function deficient Fc) (antibody, V domains shown)
VH: ELTLQESGPGLVKPSQTLSLTCVVSGGSVTSTYYWNWIRQRPGRGLEWMGYWTGTTNYNPAFQGRISITADTAKNQFSLQLSSMTTEDTAVYYCAREDLVTVGSGAFNYWGQGTLVTVSS
VL: B2 VL with K95T, A96W, G100E, H103Q
B4: PMX170 (monospecific anti-canine CD3, canine IgG-B effector function deficient Fc) (antibody)
heavy: EVQLVESGGDLVKPGGSLRLSCVASGFTFSSYHMSWVRQAPGKGLQWVAYSNSGGSRTSYADAVKGRFTISRDNAKNTLYLQMSSLRAEDTAVYYCASEGGGGRYGFKDYGMDYWGHGTSLFVSSASTTAPSVFPLAPSCGSTSGSTVALACLVSGYFPEPVTVSWNSGSLTSGVHTFPSVLQSSGLYSLSSMVTVPSSRWPSETFTCNVAHPASKTKVDKPVPKRENGRVPRPPDCPKCPAPESLGGPSVFIFPPKPKDTLLIARTPEVTCVVVDLGREDPEVQISWFVDGKQMQTAKTQPREEQFNGTYRVVSVLPIGHQDWLKGKQFTCKVNHIGLPSPIERTISKARGQAHQPSVYVLPPSREELSKNTVSLTCLIKDFFPPDIDVEWQSNGQQEPESKYRTTPPQLDEDGSYFLYSKLSVDKSRWQRGDTFICAVMHEALHNHYTQKSLSHSPGK
VL: SYVLTQLPSKNVTLKQPAHITCGGDNIGSKSVHWYQQKLGQAPVLIIYYDSSRPTGIPERFSGANSGNTATLTISGALAEDEADYYCQVWDSSAKAWVFGEGTQLTVL
B5: PMX177 (monospecific anti-canine CD3, canine IgG-B effector function deficient Fc) (antibody, V domains shown)
VH: EVTLQESGPGLVKPSQTLSLTCVVSGGSVTSSFYWNWIRQRPGRGLEWMGYWTGSTNYNPAFQGRISITADTAKNQFSLHLGSMTTDDTAMYYCAREEGSWGRVYFDYWGQGTLVTVSS
VL: B4 VL with A94T, A96T
B6: PMX179 (monospecific anti-canine CD3, canine IgG-B effector function deficient Fc) (antibody, V domains shown)
VH: ELALQESGPGLVRPSQTLSLTCVVSGGSVTRSYYWNWIRQRPGRGLEWMGYWTGTTIYNPAFQGRISITVDTAKNQFSLHLISMTTEDTAVYYCGREGGSSLGAIAYWGQGTRVTVSS
VL: B4 VL with W97A, E101G, Q104H
B7: PMX176 (monospecific anti-canine CD3, canine IgG-B effector function deficient Fc) (antibody, V domains shown)
VH: EVQLVESGGDLVKPGGSLRLSCVASGFTFSSYHMSWVRQAPGKGLQWVAYINSAGSTTSYTDAVQGRFTISRDNAKNTLYLQMNSLRAEDTAVYYCASEWIFMPWGQGSLVTVSS
VL: B4 VL with W97R
B8: PMX171 (monospecific anti-canine CD3, canine IgG-B effector function deficient Fc) (antibody)
heavy: B4 heavy with V23E, S51I, S53N, R57G, S84N, Y95F, G103K, F107Y
VL: B4 VL

Target: canine CD3 on canine T cells (canine PBMC) (canine, UniProt P27597 22-202)
Sequence (P27597 22-202 limits assumed, chain 1 of 3): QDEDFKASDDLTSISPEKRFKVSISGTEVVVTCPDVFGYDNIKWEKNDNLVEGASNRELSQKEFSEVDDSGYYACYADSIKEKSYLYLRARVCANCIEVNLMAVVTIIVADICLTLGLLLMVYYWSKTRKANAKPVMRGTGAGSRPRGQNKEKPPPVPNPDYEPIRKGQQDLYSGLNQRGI
Sequence (chain, as listed by the source limits assumed, chain 2 of 3): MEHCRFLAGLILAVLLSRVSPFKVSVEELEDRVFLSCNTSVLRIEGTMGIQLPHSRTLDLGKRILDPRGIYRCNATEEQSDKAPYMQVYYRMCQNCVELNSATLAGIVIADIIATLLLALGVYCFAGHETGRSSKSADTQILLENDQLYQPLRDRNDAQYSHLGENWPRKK
Sequence (chain, as listed by the source limits assumed, chain 3 of 3): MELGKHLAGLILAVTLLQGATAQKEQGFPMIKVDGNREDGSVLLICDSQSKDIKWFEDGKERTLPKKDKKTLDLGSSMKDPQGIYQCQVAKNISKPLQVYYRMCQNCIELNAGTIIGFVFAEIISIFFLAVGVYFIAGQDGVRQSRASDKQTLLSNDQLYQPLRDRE
Test: cell-based or functional assay

Binder	CD25 Activation, Day 6, IS	CD25 Activation, Day 6, PB	CD25 Activation, Day 9, IS	CD25 Activation, Day 9, PB	IFNy Concentration pg/ml, Day 6, IS [pg/mL]	IFNy Concentration pg/ml, Day 9, IS [pg/mL]	IFNy Concentration pg/ml, Day 9, PB [pg/mL]	Ki67 Proliferation, Day 6, IS	Ki67 Proliferation, Day 6, PB	Ki67 Proliferation, Day 9, IS	Ki67 Proliferation, Day 9, PB
B1	10.7	8.6	13.9	17	55.5	318	773	1.2	0.21	1.77	0.58
B2	7.37	8.61	8.21	8.48	17.4	627	591	0.95	0.089	1.03	0
B3	14.5	8.76	10	9.46	51	233	706	2.03	0.59	1	0.95
B4	9.44	11.8	7.39	11.3	71.3	114	282	1.99	0.27	0.79	0.47
B5	8.02	12.6	13.7	18.4	28.8	763	2210	1.41	1.37	3.19	0.47
B6	8.73	22	10.9	22.9	43.4	162	2750	1.27	0.48	2.06	0.31
B7	10.3	9.61	12.3	10.1	30.3	278	594	0.93	1.45	2.2	0
B8	11.9	13.7	10.4	6.22	106	146	277	0.98	0.57	1.91	0.52
